Target: African cichlid nackednavirus capsid protein (African cichlid nackednavirus (ACNDV))
Assay: cryo-EM structure; capsids assembled in E. coli and purified; TRIS buffer (50 mM TRIS, 50 mM NaCl, 5 mM EDTA, 5 mM DTT), pH 7.5; icosahedral symmetry imposed

African cichlid nackednavirus capsid protein (natural protein)
stoichiometry N (protein dimers): 90
